Test: yeast display, Sf9 membrane polyspecificity reagent, FACS + sequencing; frameworks hold sequencing errors
In short: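 In a synthetic yeast display library (Saccharomyces cerevisiae BJ5465), nanobody expression was induced with galactose for 36–48 hours. FACS gates were set low and high (top ~1%) using anti-HA fluorescence for expression and streptavidin fluorescence for binding of the Sf9 membrane reagent. Each polyreactivity label is drawn from the gate of origin.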

| Sequence | polyreactivity (PSR sort gate) |
| --- | --- |
| QVQLVESGGGLVQAGGSLRLSCAASGRISVRIYAMGWYRQAPGKERELVAIISRSGGSTYYADSVKGRFTISRDNAKNTVYLQMNSLKPEDTEVYYCNARWSFSYTVWVDSYWCLDDYWGQGTQVTVSS | high polyreactivity |
| QVQLVESGGGLVQAGGSLRLSCAASGSTFKFYGVGWYRQAPGKERQLVASITSSSGPTYYADSVKGRFTISRDNAKYTVYLQLNSLKPEDPAVYDCNKAWRRYWLRGDYWGQGKQVTVSS | low polyreactivity |
| QVQLVESGGGLVQAGGSLRLSCAASGYTFGSNAMGWYRQAPGKERELVADIDWSSGNTYYADSVKGRFTISRDNAKNTVYVQMNSLKPEDTAVYYCAAELLIYYSWYWYDYWGQGTQVTVSS | high polyreactivity |
| QVQLVESGGGLVQAGGSLRLSCAASGRIFGGYAMGWYRQAPGKERELVAAITSAGGTNYADSVKGRFTISRDNAKNTVYLQMNSLKPEDTAVYYCAALRDRDITVYYDTGRMYYWGQGTQVTVSS | low polyreactivity |
| QVQLVESGGGLVQAGGSLRLSCAASGSILCLNAMGWYRQAPGKERELVADITRGGSTYYADSVKGRFTISRDNAKNTVYLQMNSLKPEDTAVYYCAADAYTGQIPYYYFEHYYWGQGTQVTVSS | high polyreactivity |
| QVQLVESGGGLVQAGGSLRLSCPASGITFHGYAMGWYTQEPGKERELVAAITRGGSTYYADSVKGRFTISRDNAKNTVYLQMNSLKPEDTAVYYCAARRVGYSTNYYHYNYWGQGTQVSVSS | high polyreactivity |
| QVQLVESGGGLVQAGGSLRLSCAASGSIFLIYDMGWYRQAPGKEMELVAAISNSVGSTYADSVKGRFTISRDNAKNTVYLQINSLKPEDTAVYYCNADSGPIDGRGGYWGQGTQVTVSS | low polyreactivity |
| QVQLVESGGGLVQAGGSLRLSCAASGITFAGYTMGWYRQAPGKERELVAAISWRTGSTYYADSVKGRFTISRDTAKNTVYLQMNSLKPEDTAVYYCAARVPSPYVATYYYWGQGTQVTVSS | high polyreactivity |
| QVQLVESGGGLVQAGGSLRISCAASGGTFTNYAMGWYRQAPGKERELVAAITDSGATTYYADSVKGRFTISRDNAKNTVYLQMNSLKPEDTAVYYCNAELDLYTDFDYWGQGTQVTVSS | low polyreactivity |
| QVQLVESGGGLVHAGGSLRLSCADSGSIFGWYVMGWYRQAPGKVREFVAAISSVGSTYYADSVKGRFTISRDNAKNTVSLQMNSLKPEDTAVYYCAKLRYPYLFWDDSEYWGQGTQVTVSS | low polyreactivity |
| QVQLVESGGGLVQAGGSLRLSCAASGFTFTSNAMGWYRQAPGKEREFVADISNIGGDTTYADSVKGRFTISRDNAKNTVYLQMNSLKPEDTAVYYCKADFAFIENDYWGQGTQVTVSS | low polyreactivity |
| QVQLVESVGGLVQAGGSLRLSSAASGIIFRRYPMVWYREPPGKDRELVAAISSGGRTYYADSGKGRFTISRDNAKNSVYLHMNSLKQEDTAVYYCAARWWYKNKYWGQGTQVTVSS | high polyreactivity |
| QVQLVESGGGLVQAGGSLRVSCAASGRIIPSYAMGWYRQAPGKERELVAVIRSSVDGTYYADSVKGRFTISRDNAKNTVYLQMNSLKPEDTAVYYCAADSYPFFNLNQYPVREGEYGHWGQGTQVTVSS | low polyreactivity |
| QVQLVESGGGLVQAGGSLRLSCAASGSTFAGYVMGWYRQAPGKERELVAGISYRGGRTYYADSVKGRFTISRDNAKNTVYLQMNSLKPEDTAVYYCAAENAVTGTDGEYYYWGQGTQVTVSS | high polyreactivity |
| QVQLVESAGVLVQAGGRLRLICAACGSIFDYYSLGWYRQAPGKEREMVDTISGGGGTTYYADSVKGRFTISRDNAKNSVYVHMNSLKPEDTAVYYCAADSLGYKYWGQGTQVTVSS | low polyreactivity |
| QVQLVESGGGLVQAGGSLRLSCAASASNIIGYAMGWYRQAPGKERELVAAITSGSITNYADSVKGRFTISRDTAKNTVYLQMNSLKPEDTAVYYCNADVNFIDDDYWGQGTQVTVSS | low polyreactivity |
| QVQLVESGGVLVQAGGSLRLSCAASGSTFSYYTMGWYRQAPGKERELVATISKRGGTTSYADSVKGRFTISRDNAKNTVYLQMNSLKPEDTAVYYCAARYSKVHYAYDYWGQGTQVTVSS | high polyreactivity |
